Experimental data from the DeepSol protein solubility set.

Assay: soluble on expression in E. coli; label from the status in PepcDB or PDB records

Row | Sequence | soluble on expression in E. coli
1 | MGSDKIHHHHHHMEEQREILEQLKKTLQMLTVEPSKNNQIANEEKEKKENENSWCILEHNYEDIAQEFIDFIYKNPTTYHVVSFFAELLDKHNFKYLSEKSNWQDSIGEDGGKFYTIRNGTNLSAFILGKNWRAEKGVGVIGSHVDALTVKLKPVSFKDTAEGYGRIAVAPYGGTLNELWLDRDLGIGGRLLYKKKGTNEIKSALVDSTPLPVCRIPSLAPHFGKPAEGPFDKEDQTIPVIGFPTPDEEGNEPPTDDEKKSPLFGKHCIHLLRYVAKLAGVEVSELIQMDLDLFDVQKGTIGGIGKHFLFAPRLDDRLCSFAAMIALICYAKDVNTEESDLFSTVTLYDNEEIGSLTRQGAKGGLLESVVERSSSAFTKKPVDLHTVWANSIILSADVNHLYNPNFPEVYLKNHFPVPNVGITLSLDPNGHMATDVVGTALVEELARRNGDKVQYFQIKNNSRSGGTIGPSLASQTGARTIDLGIAQLSMHSIRAATGSKDVGLGVKFFNGFFKHWRSVYDEFGEL | not soluble
2 | GPGSMERLLPSMQQRFAELAHTGVGESSLTVEALFQRYQRVLKVGEGTFGEVFVLYDTVAHTYITMKRMHTLLSLRRRSLGIHRCTFREVELLAALQHPNIVQVLDYHILSDGSLVMLMPVIAHDLTSLLRRWPSTPQSSDHGTASTAASTRPRMPLHVVKCIFRQIIAGVAYLHKHKVVHRDLKPSNVMVDHTGVVKLIDFGWSRFCAAAGAMTGPPCVTAFRPPEVLMGAHNHYTFSLDIWCCGCILFEMLTGGTPFAKSRNEAECLANIVDWLGSPPSSSEVYYRRAARCPFPLAPGRPDTFAQRCSNYGIKSAEAMFLRRMLCLEPGERATAEALLRDPWFTTAPTMCVPRAVPLPAHNMFRLVEVKRKELEH | not soluble
3 | MSLDAVRAVLIDIDGVLTVSWKPLPGAIEALHRIRDASLGVVLLTNTTSRTRASIAATLGASGFPVSAEDILTAPTATAAHLTDHCPGARCSLLNSGDIREDLVGVTLLDDTDTVPDVVIVGGAGPEFDYAALNRVFGHLQRGARLVAMHRNLYWRTDRGLDLDSGAFLLGLEHAAGTRAEITGKPAPAFFEAALTRLGAGPGQAVMVGDDIESDVLAAQRTGITGVLVKTGKYLPETHHAASARPDHVLDSVADLPALLDSVVREGHHHHHH | soluble
4 | SLTNITQCKNRRCGGELGDFTGYIESPNYPGNYPANTECTWTINPPPKRRILIVVPEIFLPIEDDCGDYLVMRKTSSSNSVTTYETCQTYERPIAFTSRSKKLWIQFKSNEGNSARGFQVPYVTYDEDYQELIEDIVRDGRLYASENHQEILKDKKLIKALFDVLAHPQNYFKYTAQESREMFPRSFIRLLRSKVSRFLRPYK | soluble
5 | AENNNLKLASTMEGRVEQLAEQRQVIEAGGGERRVEKQHSQGKQTARERLNNLLDPHSFDEVGAFRKHRTTLFGMDKAVVPADGVVTGRGTILGRPVHAASQDFTVMGGSAGETQSTKVVETMEQALLTGTPFLFFYDSGGARIQEGIDSLSGYGKMFFANVKLSGVVPQIAIIAGPCAGGASYSPALTDFIIMTKKAHMFITGPQVIKSVTGEDVTADELGGAEAHMAISGNIHFVAEDDDAAELIAKKLLSFLPQNNTEEASFVNPNNDVSPNTELRDIVPIDGKKGYDVRDVIAKIVDWGDYLEVKAGYATNLVTAFARVNGRSVGIVANQPSVMSGCLDINASDKAAEFVNFCDSFNIPLVQLVDVPGFLPGVQQEYGGIIRHGAKMLYAYSEATVPKITVVLRKAYGGSYLAMCNRDLGADAVYAWPSAEIAVMGAEGAANVIFRKEIKAADDPDAMRAEKIEEYQNAFNTPYVAAARGQVDDVIDPADTRRKIASALEMYATKRQTRPAKKHGNFPC | soluble
6 | MKLAARVESVSPSMTLIIDAKAKAMKAEGIDVCSFSAGEPDFNTPKHIVEAAKAALEQGKTRYGPAAGEPRLREAIAQKLQRDNGLCYGADNILVTNGGKQSIFNLMLAMIEPGDEVIIPAPFWVSYPEMVKLAEGTPVILPTTVETQFKVSPEQIRQAITPKTKLLVFNTPSNPTGMVYTPDEVRAIAQVAVEAGLWVLSDEIYEKILYDDAQHLSIGAASPEAYERSVVCSGFAKTYAMTGWRVGFLAGPVPLVKAATKIQGHSTSNVCTFAQYGAIAAYENSQDCVQEMLAAFAERRRYMLDALNAMPGLECPKPDGAFYMFPSIAKTGRSSLDFCSELLDQHQVATVPGAAFGADDCIRLSYATDLDTIKRGMERLEKFLHGIL | soluble
7 | MGKTNDWLDFDQLAEEKVRDALKPPSMYKVILVNDDYTPMEFVIDVLQKFFSYDVERATQLMLAVHYQGKAICGVFTAEVAETKVAMVNKYARENEHPLLCTLEKAGA | soluble
8 | MAHHHHHHMSVPEWARSEHSIEEAKEYLRTGNSVDFFELVSSHILREHPLDVAAFALDLVERISKLGNTLSARDYHPKRVEDNKYLQEKNVCEFLNEWILALLKERPDTDEARMSFHKRYLKSLVDGGGCSQCTSVN | not soluble
9 | SPGQGTQSENSCTHFPGNLPNMLRDLRDAFSRVKTFFQMKDQLDNLLLKESLLEDFKGYLGCQALSEMIQFYLEEVMPQAENQDPDIKAHVNSLGENLKTLRLRLRRCHRFLPCENKSKAVEQVKNAFNKLQEKGIYKAMSEFDIFINYIEAYMTMKIRN | soluble
10 | MHIDNIENLSDREFDYIVVGGGSAGAAVAARLSEDPAVSVALVEAGPDDRGVPEVLQLDRWMELLESGYDWDYPIEPQENGNSFMRHARAKVMGGCSSHNSCIAFWAPREDLDEWEAKYGATGWNAEAAWPLYKRLETNEDAGPDAPHHGDSGPVHLMNVPPKDPTGVALLDACEQAGIPRAKFNTGTTVVNGANFFQINRRADGTRSSSSVSYIHPIVEQENFTLLTGLRARQLVFDADRRCTGVDIVDSAFGHTHRLTARNEVVLSTGAIDTPKLLMLSGIGPAAHLAEHGIEVLVDSPGVGEHLQDHPEGVVQFEAKQPMVAESTQWWEIGIFTPTEDGLDRPDLMMHYGSVPFDMNTLRHGYPTTENGFSLTPNVTHARSRGTVRLRSRDFRDKPMVDPRYFTDPEGHDMRVMVAGIRKAREIAAQPAMAEWTGRELSPGVEAQTDEELQDYIRKTHNTAYHPVGTVRMGAVEDEMSPLDPELRVKGVTGLRVADASVMPEHVTVNPNITVMMIGERCADLIRSARAGETTTADAELSAALA | soluble
11 | MKANANAFYAINGNSVIDFKESSKAKDVCEFLGRIKEENEYDPIVVLDNSKTHHADITIKKAKQLDITLVFLPPYSPDLNPIEFIWKSVRKEILKEFIESVTQLRDLIKNEYMKLAKSKSFANNWMKIFDEQIKSVMNSLEHHHHHH | not soluble
12 | MGSDKIHHHHHHMDRVQAMRVFVAVVDCGGFTRAAQQLQLPRATVSSAVQQLEAQLGARLLHRTTRRVQLTLDGGTFYERCQQLLADFDELESLFSQQGASPRGKLRIDVPGPIGRQVLAPALPEFFRLYPGIELELGVTDRPVDLIQEGVDCVIRVGALAESRLVARRIGMLPQGNYASPDYLAAFGAPASPDALAGHRAVNYASPSTGKVFAWEYLQDGERRELALQSLVSVNQVESYIACALAGLGMIQLPRYDAEPHVAAGALVEVLADWPPPAMPVSVLYPHRRHLSRRVQVFVEWAGALLRERLRLGA | not soluble
13 | MSPTVRTARHDDYDDIVDLTSDVWADRAMADYIPDVFRDWVDDDGPNRKTLVVDVDGHAVGLAQAVILTETEAWFQGMRVDSDHRGKGFGSLLTEHLIEWAADAGASVGRSMVFSWNEAGLGQSLAAGFEAVTSFRWAHPDPADETPEMTVRNDPTNAWRYWQESDGRGVLSGLALDSGESWALSTLTRETLDRLAADQTVLTIGDDGPQGMACRVRTTDADGEQLAEYAVGVWSDVDAARALFTAIAADAATLGVDGTRVLIPETPRHVAQAAYASGNIDECPDFVLEIDGLEELS | not soluble
14 | MPIVRWGKTIKQELSEGWSRVIQHELTGKLDGHHGGFHETGDESMSDDLSDQARSTAVKQLKALGLSTYAARTFVALISLGEGTAQDVSEVADVPRTRVYDAADELRDRGLVDVKQSSPRRYWAISTETAGRHFEQEYDHRVTVLTNALDRLASANRSTEQQGVWTVTGRDTVTGRVVDFISSADDEVVYMTAEELLTDEIAESLSTASDRGVTIRLAEMSQSVEAQLERDVPDAQLFESAWEWSDTPAGRLLMIDQQKTLVSVLVGANGGYSLEPSDETAIWGTGQSNSLVVVLKALFAWQLANNRE | not soluble
15 | MSLTTSAHKHPYKIVASDLDGTLLAPNHQLSEFSKQTLKQLHDKGFTFIFATGRHHIDVAGIREIAGIPAYMITSNGARVHDQNDQLMYSKNVPQDLVQAIIDVVKHDKQLFVHLYRNDEWMLNKEDEILRDFHEDSGFTYRVFDVNNAPTDGIAKIFFTQEDQDHEHLVQYETLLNQRFGDKLNVAFSTPWCLEVMCAGVSKGDALQAVAESLHLGLENCIAFGDGMNDVEMLSMAGKGLVMGTAHEKVFNALPDNEVIGSNADDAVAHYLHQHLFEGGSHHHHHH | soluble
16 | MAENFQLPYLSLQNEKVDMVFDLFNKTIRNGEKVTFAFSGGKDSTTLAILFYEWLKIRHDIECTITLLHNDTSSEIDPMENWARNFMTSYKTEIEDITEGRVKINIDIRTPKVIDTFYWRMLIRGYPAPSFNFRWCVHLLKEKPANLDSIEETMFTGLREAESSERRILMRKKYGNSCSASPGGCMAYYYSTEGKGNKVAPMRDWTDGDVWSFLTLYRNTGGINISPIFMLYPNPKVRYGCWHCTLASVQWGLQSLGGGLEYFEAVRILYRKFSDLPYLRIKKNTGYSKLGPLNAAGRALMLKSIALAEDLSNVKLYGLDINLLEGKSIRDILFNLDPKEATALIKKYDPNIPRFRYIPIDKIRNIQKYKELALRALIDVKRNCANDKAYILLDTKLENPLITLLNRIEDLLS | not soluble
17 | MGSDKIHHHHHHMIPLEHRYAQIEKAITYIDENFRAHPSVDEIAQNVGMSKYHFIRVFKEYAGVTPKQFLHCVTLNYAKEHIKESRSILESSLDIGLSSSSRLHELFVNLIGVTPREWRERGRGVLVTYGFGQTPFGEALIGFTDKGICYLGLMSDNKLEILGRFYELWGEAILEYDEKAAQKYLGYIFDRGEEGSPWNLGTNSQVNAWKALINLSRHLEDRVEGLIPCCGIISRSGAMSGHRWRIERGAALSLLDDIREKGSFGFSDNIDL | not soluble
18 | SLFPHISPCEVRVLMLLYSSKKKIFMGLIPYDQSGFVSAIRQVITTRKQAVGPGGVNSGPVQIVNNKFLAWSGVMEWQEPRPEPNSRSKRWLPSHVYVNQGEILRTEQWPRKLYMQLIPQQLLTTLVPLFRNSRLVQFHFTKDLETLKSLCRIMDNGFAGCVHFSYKASCEIRVLMLLYSSEKKIFIGLIPHDQGNFVNGIRRVIANQQQVLQRNLEQEQQQRGMGG | soluble
19 | MSLFKIRMPETVAEGTRLALRAFSLVVAVDERGGIGDGRSIPWNVPEDMKFFRDVTTKLRGKNVKPSPAKRNAVVMGRKTWDSIPPKFRPLPGRLNVVLSSTLTTQHLLDGLPDEEKRNLHADSIVAVNGGLEQALQLLASPNYTPSIETVYCIGGGSVYAEALRPPCVHLLQAIYRTTIRASESSCSVFFRVPESGTEAAAGIEWQRETISEELTSANGNETKYYFEKLIPRNREEEQYLSLVDRIIREGNVKHDRTGVGTLSIFGAQMRFSLRNNRLPLLTTKRVFWRGVCEELLWFLRGETYAKKLSDKGVHIWDDNGSRAFLDSRGLTEYEEMDLGPVYGFQWRHFGAAYTHHDANYDGQGVDQIKAIVETLKTNPDDRRMLFTAWNPSALPRMALPPCHLLAQFYVSNGELSCMLYQRSCDMGLGVPFNIASYALLTILIAKATGLRPGELVHTLGDAHVYSNHVEPCNEQLKRVPRAFPYLVFRREREFLEDYEEGDMEVIDYAPYPPISMKMAV | soluble
